Test results as given in patent US20220380463A1 (Adimab, published 2022).

B1: SAD10320_P02_C06 (ADI-48654) (antibody, V domains shown)
VH: QVQLVQSGAEVKKPGASVKVSCKASGFNIKDYYMHWVRQAPGQRLEWMGWIDLENANTIYDAKFQGRVTITRDTSASTAYMELSSLRSEDTAVYYCARDAYGRYFYDVWGQGTLVTVSS
VL: DIVMTQSPDSLAVSLGERATINCKSSQSLLNARTGKNYLAWYQQKPGQPPKLLIYWASTRESGVPDRFSGSGSGTDFTLTISSLQAEDVAVYYCKQSGHRRTFGGGTKVEIK
notes: IgG; also called Ab84
B2: SAD10318_P03_E09 (ADI-48611) (antibody, V domains shown)
VH: QVQLVQSGAEVKKPGASVKVSCKASGFNIKDYYMHWVRQAPGQRLEWMGWIDLENANTIYDAKFQGRVTITRDTSASTAYMELSSLRSEDTAVYYCARDAYGHYHYDVWGQGTLVTVS
VL: DIVMTQSPDSLAVSLGERATINCKSSQSLLNARTGHNHLAWYQQKPGQPPKLLIYWASTRESGVPDRFSGSGSGTDFTLTISSLQAEDVAVYYCKQSYHHRTFGGGTKVEIK
notes: IgG; also called Ab207
B3: SAD10319_P01_H01 (ADI-48623) (antibody, V domains shown)
VH: QVQLVQSGAEVKKPGASVKVSCKASGYTFDDYAMHWVRQAPGQRLEWMGWIDAGTGDTKYSQKFQGRVTITRDTSASTAYMELSSLRSEDTAVYYCARDHYHRYFYDVWGQGTLVTVSS
VL: DIVMTQSPDSLAVSLGERATINCKSSQSLLNARTGKNYLAWYQQKPGQPPKLLIYWASTRESGVPDRFSGSGSGTDFTLTISSLQAEDVAVYYCKQSYSRRTFGGGTKVEIK
notes: IgG; also called Ab235
B4: SAD10319_P01_A01 (ADI-48619) (antibody, V domains shown)
VH: QVQLVQSGAEVKKPGASVKVSCKASGYTFASYAMHWVRQAPGQRLEWMGWINPDTGNTVYSQKFQGRVTITRDTSASTAYMELSSLRSEDTAVYYCARDAYHHYFYDVWGQGTLVTVSS
VL: DIVMTQSPDSLAVSLGERATINCKSSQSLLNARTGKNYLAWYQQKPGQPPKLLIYWASTRESGVPDRFSGSGSGTDFTLTISSLQAEDVAVYYCKQSYSRRTFGGGTKVEIK
notes: IgG; also called Ab229
B5: SAD10319_P01_H02 (ADI-48625) (antibody, V domains shown)
VH: QVQLVQSGAEVKKPGASVKVSCKASGYTFTDYAMHWVRQAPGQRLEWMGWINPSTGATVYSQKFQGRVTITRDTSASTAYMELSSLRSEDTAVYYCARDAYHHYFYDVWGQGTLVTVSS
VL: DIVMTQSPDSLAVSLGERATINCKSSQSLLNARTGKNYLAWYQQKPGQPPKLLIYWASTRESGVPDRFSGSGSGTDFTLTISSLQAEDVAVYYCKQSYSRRTFGGGTKVEIK
notes: IgG; also called Ab242
B6: SAD10319_P01_F02 (ADI-48624) (antibody, V domains shown)
VH: QVQLVQSGAEVKKPGASVKVSCKASGYTFESYDMHWVRQAPGQRLEWMGWIDAGTGNTKYSQKFQGRVTITADESTSTAYMELSSLRSEDTAVYYCARDHYGHYFYDVWGQGTLVTVSS
VL: DIVMTQSPDSLAVSLGERATINCKSSQSLLNARTGKNYLAWYQQKPGQPPKLLIYWASTRESGVPDRFSGSGSGTDFTLTISSLQAEDVAVYYCKQSYSRRTFGGGTKVEIK
notes: IgG; also called Ab241
B7: SAD10319_P01_C01 (ADI-48621) (antibody, V domains shown)
VH: QVQLVQSGAEVKKPGASVKVSCKASGYTFTDYDMHWVRQAPGQRLEWMGWIDAGTGLTKYSQKFQGRVTITRDTSASTAYMELSSLRSEDTAVYYCARDHYGHYFYDVWGQGTLVTVSS
VL: DIVMTQSPDSLAVSLGERATINCKSSQSLLNARTGKNYLAWYQQKPGQPPKLLIYWASTRESGVPDRFSGSGSGTDFTLTISSLQAEDVAVYYCKQSYSRRTFGGGTKVEIK
notes: IgG; also called Ab230
B8: SAD10318_P02_C05 (ADI-48597) (antibody, V domains shown)
VH: QVQLVQSGAEVKKPGASVKVSCKASGFNIKDYYMHWVRQAPGQRLEWMGWIDLENANTIYDAKFQGRVTITRDTSASTAYMELSSLRSEDTAVYYCARDAHHRYFYDVWGQGTLVTVSS
VL: DIVMTQSPDSLAVSLGERATINCKSSQSLLNARTGHNHLAWYQQKPGQPPKLLIYWASTRESGVPDRFSGSGSGTDFTLTISSLQAEDVAVYYCKQSHSHRTFGGGTKVEI
notes: IgG; also called Ab180
B9: SAD10320_P04_G10 (ADI-48658) (antibody, V domains shown)
VH: QVQLVQSGAEVKKPGASVKVSCKASGFNIKDYYMHWVRQAPGQRLEWMGWIDLENANTIYDAKFQGRVTITRDTSASTAYMELSSLRSEDTAVYYCARDAYGHDFYDVWGQGTLVTVSS
VL: DIVMTQSPDSLAVSLGERATINCKSSQSLLNARTGKNYLAWYQQKPGQPPKLLIYWASTRESGVPDRFSGSGSGTDFTLTISSLQAEDVAVYYCKQSYSRRTFGGGTKVEIK
notes: IgG; also called Ab108
B10: SAD10320_P04_E10 (ADI-48657) (antibody, V domains shown)
VH: QVQLVQSGAEVKKPGASVKVSCKASGFNIKDYYMHWVRQAPGQRPEWMGWIDLENANTIYDAKFQGRVTITRDTSASTAYMELSSLRSEDTAVYYCARDAYGHDFYDVWGQGTLVTVSS
VL: DIVMTQSPDSLAVSLGERATINCKSSQSLLNARTGKNYLAWYQQKPGQPPKLLIYWASTRESGVPDRFSGSGSGTDFTLTISSLQAEDVAVYYCKQSYSRRTFGGGTKVEIK
notes: IgG; also called Ab106
B11: SAD10320_P02_D05 (ADI-48650) (antibody, V domains shown)
VH: QVQLVQSGAEVKKPGASVKVSCKASGFNIKDYYMHWVRQAPGQRLEWMGWIDLENANTIYDAKFQGRVTITRDTSASTAYMELSSLRSEDTAVYYCARDATHRYFYDVWGQGTLVTVSS
VL: DIVMTQSPDSLAVSLGERATINCKSSQSLLNARTGKNYLAWYQQKPGQPPKLLIYWASTRESGVPDRFSGSGSGTDFTLTISSLQAEDVAVYYCKQSHTRRTFGGGTKVEI
notes: IgG; also called Ab77
B12: SAD10320_P03_D09 (ADI-48655) (antibody, V domains shown)
VH: QVQLVQSGAEVKKPGASVKVSCKASGFNIKDYYMHWVRQAPGQRLEWMGWIDLENANTIYDAKFQGRVTITRDTSASTAYMELSSLRSEDTAVYYCARDAYGHDFYDVWGQGTLVTVSS
VL: DIVMTQSPDSLAVSLGERATINCKSSQSLLNARTGKNYLAWYQQKPGQPPKLLIYWASTRESGVPDRFSGSGSGTDFTLTISSLQAEDVAVYYCKQSWHRRTFGGGTKVEIK
notes: IgG; also called Ab100
B13: SAD10320_P03_F09 (ADI-48656) (antibody, V domains shown)
VH: QVQLVQSGAEVKKPGASVKVSCKASGFNIKDYYMHWVRQAPGQRLEWMGWIDLENANTIYDAKFQGRVTITRDTSASTAYMELSSLRSEDTAVYYCARDAYGHDFYDVWGQGTLVTVSS
VL: DIVMTQSPDSLAVSLGERATINCKSSQSLLNARTGKNYLAWYQQKPGQPPKLLIYWASTRESGVPDRFSGSGSGTDFTLTISSLQAEDVAVYYCKQSYHRRTFGGGTKVEIK
notes: IgG; also called Ab101
B14: SAD10320_P02_E04 (ADI-48649) (antibody, V domains shown)
VH: QVQLVQSGAEVKKPGASVKVSCKASGFNIKDYYMHWVRQAPGQRLEWMGWIDLENANTIYDAKFQGRVTITRDTSASTAYMELSSLRSEDTAVYYCARDAYHEYFYDVWGQGTLVTVSS
VL: DIVMTQSPDSLAVSLGERATINCKSSQSLLNARTGKNYLAWYQQKPGQPPKLLIYWASTRESGVPDRFSGSGSGTDFTLTISSLQAEDVAVYYCKQSHVRRTFGGGTKVEIK
notes: IgG; also called Ab72
B15: SAD10320_P02_F05 (ADI-48651) (antibody, V domains shown)
VH: QVQLVQSGAEVKKPGASVKVSCKASGFNIKDYYMHWVRQAPGQRLEWMGWIDLENANTIYDAKFQGRVTITRDTSASTAYMELSSLRSEDTAVYYCARDAYGRYHYDVWGQGTLVTVSS
VL: DIVMTQSPDSLAVSLGERATINCKSSQSLLNARTGKNYLAWYQQKPGQPPKLLIYWASTRESGVPDRFSGSGSGTDFTLTISSLQAEDVAVYYCKQSYRHRTFGGGTKVEIK
notes: IgG; also called Ab79
B16: SAD10320_P04_H11 (ADI-48662) (antibody, V domains shown)
VH: QVQLVQSGAEVKKPGASVKVSCKASGFNIKDYYMHWVRQAPGQRLEWMGWIDLENANTIYDAKFQGRVTITRDTSASTAYMELSSLRSEDTAVYYCARDAYGHVFYDVWGQGTLVTVSS
VL: DIVMTQSPDSLAVSLGERATINCKSSQSLLNARTGKNYLAWYQQKPGQPPKLLIYWASTRESGVPDRFSGSGSGTDFTLTISSLQAEDVAVYYCKQSYQHRTFGGGTKVEIK
notes: IgG; also called Ab116
B17: SAD10320_P02_H05 (ADI-48652) (antibody, V domains shown)
VH: QVQLVQSGAEVKKPGASVKVSCKASGFNIKDYYMHWVRQAPGQRLEWMGWIDLENANTIYDAKFQGRVTITRDTSASTAYMELSSLRSEDTAVYYCARDAHHRYFYDVWGQGTLVTVSS
VL: DIVMTQSPDSLAVSLGERATINCKSSQSLLNARTGKNYLAWYQQKPGQPPKLLIYWASTRESGVPDRFSGSGSGTDFTLTISSLQAEDVAVYYCKQSHSRRTFGGGTKVEIK
notes: IgG; also called Ab81

How the values were obtained:
[1] = target: T1, human CD3 on CD3+ Jurkat cells (human, UniProt P07766 23-207); experiment: flow cytometry, 100 nM IgG on CD3+ Jurkat cells, pH 6.0
T1 construct: whole, on cells; Native CD3 complex on cells; the other CD3 chains are not specified for this assay; also called Human CD3+ Jurkat
How it was run: (§1)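 Jurkat cells incubated 20 min on ice with 100 nM yeast-produced IgG in PBS + 0.1% BSA at pH 6.0 or pH 7.4, with all washes and staining at the same pH. Bound antibody detected with anti-human IgG-RPE, dead cells excluded by propidium iodide; MFI measured by flow cytometry.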

[2] = target: T1, human CD3 on CD3+ Jurkat cells; experiment: flow cytometry on CD3+ Jurkat cells, ratio of MFI at pH 6.0 to pH 7.4
How it was run: as §1

[3] = target: T1, human CD3 on CD3+ Jurkat cells; experiment: flow cytometry, 100 nM IgG on CD3+ Jurkat cells, pH 7.4
How it was run: as §1

T1 sequence (P07766 23-207): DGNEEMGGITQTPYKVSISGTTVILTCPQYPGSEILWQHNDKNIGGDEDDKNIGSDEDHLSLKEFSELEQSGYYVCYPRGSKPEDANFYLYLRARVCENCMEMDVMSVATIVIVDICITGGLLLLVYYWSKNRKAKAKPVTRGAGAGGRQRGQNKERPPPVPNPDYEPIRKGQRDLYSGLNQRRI

Binder | MFI pH 6.0 [1] [MFI] | MFI pH 6.0/MFI pH 7.4 [2] | MFI pH 7.4 [3] [MFI]
B1 | 5590 | 1.1 | 4890
B2 | 123 | 2.6 | 47
B3 | 1760 | 12 | 147
B4 | 1750 | 13.5 | 129
B5 | 1730 | 13.6 | 128
B6 | 895 | 15.4 | 58
B7 | 731 | 14.8 | 49
B8 | 1320 | 21.7 | 61
B9 | 113 | 0.4 | 316
B10 | 786 | 11.7 | 67
B11 | 6010 | 1.1 | 5430
B12 | 1180 | 2 | 581
B13 | 185 | 4.9 | 38
B14 | 2320 | 3.6 | 639
B15 | 5620 | 1.4 | 4110
B16 | 81 | 1.8 | 44
B17 | 5750 | 1.2 | 4760
